Experimental findings from patent US20220348666A1 (SUZHOU CONNECT BIOPHARMACEUTICALS, published 2022) are described below.

Where “and” joins values, the source holds several entries; their conditions need not be identical. Equal entries are not always repeated.

In test [1] the target is T1, human interleukin-4 receptor alpha on HEK Blue IL4/IL13 cells (human, UniProt P24394 26-825).
T1 sequence (looked up): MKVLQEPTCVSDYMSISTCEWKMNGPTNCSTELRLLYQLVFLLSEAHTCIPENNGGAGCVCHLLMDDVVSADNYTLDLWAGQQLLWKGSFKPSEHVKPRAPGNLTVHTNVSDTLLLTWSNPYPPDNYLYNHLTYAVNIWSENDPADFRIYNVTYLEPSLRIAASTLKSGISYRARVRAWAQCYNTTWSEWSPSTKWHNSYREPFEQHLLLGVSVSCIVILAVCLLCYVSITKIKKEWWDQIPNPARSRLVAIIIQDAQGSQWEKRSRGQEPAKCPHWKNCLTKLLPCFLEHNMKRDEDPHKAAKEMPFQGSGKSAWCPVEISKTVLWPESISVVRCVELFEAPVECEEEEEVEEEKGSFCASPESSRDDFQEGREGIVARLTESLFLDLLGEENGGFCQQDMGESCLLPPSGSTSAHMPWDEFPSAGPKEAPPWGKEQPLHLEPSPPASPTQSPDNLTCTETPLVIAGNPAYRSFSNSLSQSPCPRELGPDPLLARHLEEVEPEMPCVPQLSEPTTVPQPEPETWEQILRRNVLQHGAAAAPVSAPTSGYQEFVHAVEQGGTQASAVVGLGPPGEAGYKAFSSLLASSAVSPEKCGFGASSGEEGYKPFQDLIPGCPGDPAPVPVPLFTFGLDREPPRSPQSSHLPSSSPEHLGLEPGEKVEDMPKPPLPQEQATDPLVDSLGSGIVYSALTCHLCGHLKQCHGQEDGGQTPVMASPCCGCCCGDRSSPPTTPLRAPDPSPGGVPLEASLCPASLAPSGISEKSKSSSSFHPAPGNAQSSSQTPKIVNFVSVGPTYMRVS
As to the kind of experiment: cell-based or functional assay.

Test [2] concerns the target T2, sIL-4Rα (antigen, expressed according to NM_000418.4) (human, UniProt P24394 26-232, limits assumed).
T2 construct: Soluble form coated on the ELISA plate; also called human interleukin-4 receptor alpha
T2 sequence (looked up): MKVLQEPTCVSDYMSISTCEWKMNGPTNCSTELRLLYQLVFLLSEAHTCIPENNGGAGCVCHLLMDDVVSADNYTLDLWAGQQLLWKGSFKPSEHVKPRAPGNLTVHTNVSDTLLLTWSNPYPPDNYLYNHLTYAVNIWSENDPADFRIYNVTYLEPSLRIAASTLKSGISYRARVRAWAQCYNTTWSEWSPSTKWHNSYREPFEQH
As to the kind of experiment: indirect ELISA, sIL-4Rα coated on plate, enzyme labeled secondary antibody, run 1. The method, then:
(§1) The antigen (sIL-4Rα, expressed according to NM_000418.4) was coated and absorbed on a solid phase plate for ELISA, and then plate was washed, blocked and washed again before adding the samples to be tested for binding with the antigen. The samples to be tested were dilutions of the formulation prepared according to Example 6 of the present application, and the dilutions were obtained by diluting the formulation with 1% BSA to an antibody concentration of 1000 ng/mL, and subsequently performing a gradient dilution from an initial concentration of 1000 ng/mL to a concentration of 0 ng/mL. The unbound antibody was removed through washing after incubation, and an enzyme labeled secondary antibody was added for further incubation. After the unbound enzyme labeled secondary antibody was removed through washing, enzyme reaction substrate was added for color developing. Finally, the reaction was stopped by adding a stop solution, and absorbance values were read at 450 nm and 655 nm on a microplate reader. According to the absorbance values, half effective concentration EC₅₀ was calculated by curve fitting.

The target in test [3] is T2, sIL-4Rα (antigen, expressed according …). The test can be described thus: indirect ELISA, sIL-4Rα coated on plate, enzyme labeled secondary antibody, run 2. The procedure: as §1
(In general: In an ELISA, binding on a coated surface is turned into a signal by an enzyme label.)

Test [4] has the same target. The test can be described thus: indirect ELISA, sIL-4Rα coated on plate, enzyme labeled secondary antibody, run 3. The procedure: as §1
Test [5] shares this target. The test can be described thus: indirect ELISA, sIL-4Rα coated on plate, enzyme labeled secondary antibody, run 4. The method, then: as §1
Test [6] shares this target. The test can be described thus: indirect ELISA, sIL-4Rα coated on plate, enzyme labeled secondary antibody, run 5. The procedure: as §1
Test [7] has the same target. The test can be described thus: indirect ELISA, sIL-4Rα coated on plate, enzyme labeled secondary antibody, run 6. The procedure: as §1
Test [8] shares this target. The test can be described thus: indirect ELISA, sIL-4Rα coated on plate, enzyme labeled secondary antibody, average value of 6 runs. The procedure: as §1

B1: CBP-201 (antibody, human IgG4 S228P, kappa, V domains shown)
VH: EVQLVESGGGLVQPGGSLRLSCAASGFTFSRNAMFWVRQAPGKGLEWVSGIGTGGATSYADSVKGRFTISRDNAKNSLYLQMNSLRAEDTAVYYCARGRYYFDYWGQGTLVTVSS
VL: EIVLTQSPGTLSLSPGERATLSCRASQSVSSSYLAWYQQKPGQAPRLLIYGASSRATGIPDRFSGSGSGTDFTLTISRLEPEDFAVYYCQQYDHSAGWTFGQGTKVEIKR
notes: Monoclonal antibody; also called CBP-201 antibody; CBP-201 formulation
Broadly, the EC50 is the concentration giving half of the maximal effect. Low values mean higher potency in that assay, high ones lower potency in that assay. Regarding B1, the “IC50 (average value) of blocking STAT-6 signal transduction, HEK Blue IL4/IL13 cells with 0.5 ng/mL IL4, Quanti-blue absorbance at 650 nM” value in test [1] was 4.19 ng/mL and 4.51 ng/mL. Also, the 50% effective concentration (EC50) in test [2] is 1.59 ng/mL and 1.4 ng/mL; in test [3] it was 1.52 ng/mL and 1.28 ng/mL; in test [4] it was 1.84 ng/mL and 1.77 ng/mL; in test [5] it was 1.85 ng/mL and 1.8 ng/mL; in test [6] it was 1.77 ng/mL and 1.84 ng/mL; in test [7], 1.53 ng/mL and 1.45 ng/mL. Further, the EC50 in test [8] is 1.69 ng/mL and 1.56 ng/mL.
